# From patent publication US8404647B2, “Peptidylarginine deiminase (PAD) inhibitors” (Chiralix B.V., priority 2008, dated 2013)
# Numbered stars: 1 amine (or outer) side, 2 acyl side, 3 side chain; on linkers, the order of the positions; unused ones are H or OH. Square brackets hold non-standard residues; d marks the D form. Peptide text beside a SMILES is read from it. * marks the point of attachment. Orn(fluoroacetimidoyl) = N=C(CF)NCCC[C@H](N)C(=O)O; X1 = N=C(CCl)NCCC[C@H](N[*:1])C(=O)[*:2]; Moc = COC(=O)*
# Columns and labels:
# creatine kinase (CK) = assay: Creatine kinase activity (CK NAC activated liquiUV test); assay type: biochemical, mammalian; conditions: enzyme treated with inhibitor 10 min at room temperature
# Protocol: (§3) The activities of CK and TG (both purchased from Sigma-Aldrich (Schnelldorf, Germany) were assayed with the help of the commercial kits CK NAC activated liquiUV test form
# (§4) Human GmbH (Wiesbaden, Germany) and the Enzymatic Assay of [sequence] from Sigma-Aldrich (Schnelldorf, Germany) according to the manufacturers' instructions.
# caspase-3 = molecular target: T1, caspase-3 (Homo sapiens, UniProt P42574); assay: Caspase-3 activity assay (Ac-DEVDpNA cleavage); assay type: biochemical, mammalian; conditions: enzyme treated with inhibitor 10 min at room temperature
# T1 sequence (P42574 29-175 limits assumed): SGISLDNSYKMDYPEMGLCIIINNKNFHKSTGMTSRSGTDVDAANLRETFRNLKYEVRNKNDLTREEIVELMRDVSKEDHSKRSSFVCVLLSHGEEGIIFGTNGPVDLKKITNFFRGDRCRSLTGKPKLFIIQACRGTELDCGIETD
# T1 sequence (P42574 176-277 limits assumed): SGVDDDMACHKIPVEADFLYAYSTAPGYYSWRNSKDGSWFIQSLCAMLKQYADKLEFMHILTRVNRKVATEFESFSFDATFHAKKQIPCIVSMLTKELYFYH
# Protocol: Upon incubation of purified recombinant caspase-3 with its commercially available substrate: acetyl-Asp-Glu-Val-Asp-p-nitroanilide (Ac-DEVDpNA) SEQ ID NO: 145 in CFS buffer (220 mM mannitol, 68 mM sucrose, 2mM NaCl, 2.5 mM KH2PO4, 10 mM HEPES, pH 7.4 plus a cocktail of protease inhibitors), the substrate is cleaved, pNA is released and its absorbance at 405 nm can be monitored.
# papain = papain (Carica papaya, UniProt P00784); assay: biochemical
# Protocol: The activity of papain was assessed using a similar experimental setting, based on its cleavage of pGlu-Phe-Leu-pNA in reaction buffer (25 mM Tris-HCL, pH 7.6; 150 mM NaCl).
# transglutaminase (TG) = transglutaminase (TG) (UniProt P08587); assay: biochemical
# Protocol: as §3, §4
# PAD2 [1] = conditions: low doses, in vitro; cited from earlier work
# PAD4 [2] = molecular target: T2, PAD4 (Homo sapiens, UniProt Q9UM07); assay: Conversion (R to Cit) of substrate peptides by PAD4, mass spectrometry; assay type: biochemical
# Description: From previous studies it was known that D-S-Q-F-A-F-R-G-A-S-A-S-D (designated here as L1: SEQ ID NO: 11) is a substrate for PAD2 and PAD 4. To obtain better substrates, and subsequently powerful inhibitors, we intended to identify structural elements that improve substrate properties. A set of 152 individual analog peptides was generated, each differing from L1 by one amino acid at one of the positions −4 to −1 or 1 to 4.
# In Table 3 the conversion of each analog (R to Cit conversion) is depicted. Values of the analogs relate to the conversion of the analog compared to the conversion of L1 under standard conditions (100 means a conversion equal to L1, 50 means conversion of 50% of that of L1, 175 means conversion of 175% of that of L1). Numbers above 100 thus relate to amino acid substitutions that improve substrate properties.
# Peptides of table 4 are represented by the following sequences SEQ ID NO: 22-31 and 33-46. Control peptide are represented by the following sequences SEQ ID NO: 11 as control L1 and SEQ ID NO: 32 as control L2. Unfortunately, a substantial number of designed peptides were too polar to be analyzed on our LC-MS system (indicated in Table 4 as n.t., not trapped on the column). We therefore also generated and tested these peptides containing two additional N-terminal F-residues to increase hydrophobicity. In this form peptides were trapped on the column and could be analyzed (see Table 5).
# Based on the above results we designed 20 peptides containing multiple amino acids that improve substrate properties (see Table 7). The indicated peptides were synthesized and tested in order to identify the best substrate from this group. Here we used a test system with less enzyme (3 times less) compared to the experiments described above.
# (§1) Conversion of arginine into citrulline in the substrate peptides by PAD2 or PAD4 using mass spectrometry was performed as follows. A candidate substrate peptide was incubated with a PAD as indicated for several hours at 37° C. The reaction was quenched by the addition with acetic acid. A sample was analysed on a Qtof mass spectrometer (Micromass, UK) and the mass spectrum was compared with that of the same peptide not treated with PAD. Normally, 2^+- and 3^+-ions are detected. The conversion (ΔM=0.98 Da) was calculated on the 2^+- and 3^+-ions individually, and subsequently averaged taking into account the relative peak height of the 2^+- and 3^+-signals (see FIG. 5).
# PAD4 [3] = molecular target: T2, PAD4; assay: Citrullination of synthetic peptides by recombinant human PAD4 (MALDI-TOF and ESI-Q-TOF mass spectrometry); assay type: biochemical; parameters: His6; made in house; conditions: for PAD4 conversion: Arg: share of peptide still unconverted (Arg); for PAD4 conversion: 1 Cit: share of peptide with one citrulline; for PAD4 conversion: 2 Cit: share of peptide with two citrullines
# Protocol: (§2) Subsequently, the citrullinated proteins were isolated from the cell lysates by immunoaffinity purification using the RA3 single chain antibody fragment (scFv), which is specific for citrullinated epitopes {Raats et al., 2003}. After digestion of the purified proteins with trypsin, the amino acid sequence of the resulting peptides was determined by tandem mass spectrometry. Based upon the mass spectrometry data the peptides containing citrullinated residues were identified. In total 90 and 57 citrullinated peptides were identified in proteins derived from the COS-1 cells expressing PAD2 and PAD4, respectively, and 107 and 38 citrullinated peptides were obtained from HEK-293 cell material for PAD2 and PAD4, respectively. The frequency of amino acids at each of the positions between 5 residues N-terminal and 5 residues C-terminal from a citrullinated residue was derived from the combined sequences of these sites and is illustrated in Table 1. […] The efficiency by which these peptides were citrullinated by the human PAD2 and PAD4 enzymes was investigated by incubating them with the bacterially expressed, His6-tagged and IMAC purified, recombinant enzymes, followed by analysis of the products by both MALDI-TOF and ESI-Q-TOF mass spectrometry.
# PAD2 [4] = molecular target: T3, PAD2 (Homo sapiens, UniProt Q9Y2J8); assay: Conversion (R to Cit) of substrate peptides by PAD2, mass spectrometry; assay type: biochemical
# Protocol: In a similar fashion as for PAD4 we identified improved peptide substrates for PAD2. Again L1 was used as a lead compound. The set of 152 peptides from Table 3 was used and testing was performed as described before.
# as §1
# PAD2 [5] = molecular target: T3, PAD2; assay: Citrullination of synthetic peptides by recombinant human PAD2 (MALDI-TOF and ESI-Q-TOF mass spectrometry); assay type: biochemical; parameters: His6; made in house; conditions: for PAD2 conversion: Arg: share of peptide still unconverted (Arg); for PAD2 conversion: 1 Cit: share of peptide with one citrulline; for PAD2 conversion: 2 Cit: share of peptide with two citrullines
# Protocol: as §2
# His-tagged PAD4 = His-tagged PAD4 (Homo sapiens, UniProt Q9UM07); assay: Binding of biotinylated inhibitor peptide to His-tagged PAD4 (SDS-PAGE and blot); conditions: 3 h at 37° C.; binding resistant to boiling in the presence of SDS
# Protocol: In the following experiments mixtures of various quantities of biotinylated inhibitor peptide (biotin-Ahx-D-S-K-K-H-D-O(FA)-D-F-L-Y-S-D-amide (SEQ ID NO: 112), O(FA)=ornithine fluoroamidine, Ahx=6-aminohexanoic acid) and a fixed amount of His-tagged PAD4 were analysed. In short, 10 μl PAD4 solution was mixed with 10 μl inhibitor solution and incubated for 3 h at 37° C. After the addition of loading buffer containing SDS, samples were either boiled for 5 minutes or kept at room temperature. Samples were loaded on a 10% polyacrylamide gel and subjected to electrophoresis (about 1 h). Proteins were transferred to a PVDF membrane and developed with either streptavidin-alkaline phosphatase conjugate (FIG. 2) or with mouse-anti-His antibody followed by goat-anti-mouse alkaline phosphatase conjugate (FIG. 3), followed by visualisation using NBT/BCIP. In Table 18 the samples are specified.
# In FIG. 2 the biotin group of the inhibitor is visualised. Only lanes where the biotinylated inhibitor is present show a coloured band. The position of the bands is around the expected molecular weight of PAD4 (77 kDa). This indicates binding of the biotinylated peptide to PAD4. This binding is not broken by boiling of the sample in the presence of SDS. In FIG. 3 the His-tag of PAD4 is visualised. Only lanes where PAD4 is present show a coloured band. […]
# T3 sequence (Q9Y2J8 whole entry): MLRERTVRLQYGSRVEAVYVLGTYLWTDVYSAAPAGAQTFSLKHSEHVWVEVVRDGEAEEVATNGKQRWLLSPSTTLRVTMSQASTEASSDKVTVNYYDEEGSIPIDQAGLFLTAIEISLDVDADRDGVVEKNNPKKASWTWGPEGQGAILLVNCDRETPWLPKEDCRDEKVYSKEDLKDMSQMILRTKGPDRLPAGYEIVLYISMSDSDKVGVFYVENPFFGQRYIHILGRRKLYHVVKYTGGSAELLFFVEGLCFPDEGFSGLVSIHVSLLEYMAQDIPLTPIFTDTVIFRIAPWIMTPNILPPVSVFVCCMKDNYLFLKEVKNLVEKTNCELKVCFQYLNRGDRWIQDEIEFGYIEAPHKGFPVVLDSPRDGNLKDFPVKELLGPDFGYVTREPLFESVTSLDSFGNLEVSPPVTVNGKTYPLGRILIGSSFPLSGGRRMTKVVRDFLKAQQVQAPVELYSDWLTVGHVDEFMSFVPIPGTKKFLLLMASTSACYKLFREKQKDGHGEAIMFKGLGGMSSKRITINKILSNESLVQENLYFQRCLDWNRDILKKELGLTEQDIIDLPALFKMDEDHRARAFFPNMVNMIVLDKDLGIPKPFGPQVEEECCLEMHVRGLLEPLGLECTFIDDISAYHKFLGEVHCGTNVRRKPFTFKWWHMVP
# T2 sequence (Q9UM07 whole entry): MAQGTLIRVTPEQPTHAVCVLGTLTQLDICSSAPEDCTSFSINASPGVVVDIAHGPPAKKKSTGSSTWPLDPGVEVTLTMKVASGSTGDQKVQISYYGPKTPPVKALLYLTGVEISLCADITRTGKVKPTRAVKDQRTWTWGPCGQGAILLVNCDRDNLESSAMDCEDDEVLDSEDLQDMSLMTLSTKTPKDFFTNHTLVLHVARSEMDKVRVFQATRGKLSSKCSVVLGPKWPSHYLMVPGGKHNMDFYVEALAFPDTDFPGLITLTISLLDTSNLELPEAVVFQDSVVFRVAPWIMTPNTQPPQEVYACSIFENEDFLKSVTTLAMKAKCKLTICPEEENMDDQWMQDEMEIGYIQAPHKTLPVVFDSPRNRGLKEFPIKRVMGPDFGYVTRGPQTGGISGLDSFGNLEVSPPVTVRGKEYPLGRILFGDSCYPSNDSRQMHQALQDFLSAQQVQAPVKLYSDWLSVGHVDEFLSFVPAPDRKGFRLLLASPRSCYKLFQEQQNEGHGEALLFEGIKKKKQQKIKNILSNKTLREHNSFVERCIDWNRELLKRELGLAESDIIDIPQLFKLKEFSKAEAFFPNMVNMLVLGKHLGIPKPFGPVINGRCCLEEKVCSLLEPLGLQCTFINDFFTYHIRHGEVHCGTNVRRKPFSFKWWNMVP
# Chain of papain (P00784 134-345): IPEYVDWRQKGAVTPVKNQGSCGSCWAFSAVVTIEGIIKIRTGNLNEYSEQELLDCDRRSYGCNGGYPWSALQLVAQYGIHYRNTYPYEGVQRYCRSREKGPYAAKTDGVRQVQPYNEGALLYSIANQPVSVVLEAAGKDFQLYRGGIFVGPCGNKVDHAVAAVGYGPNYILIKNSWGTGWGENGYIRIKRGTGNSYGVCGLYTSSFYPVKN
# Chain of His-tagged PAD4 (Q9UM07 whole entry): as the sequence (Q9UM07 whole entry) above
# Chain of transglutaminase (TG) (P08587 whole entry): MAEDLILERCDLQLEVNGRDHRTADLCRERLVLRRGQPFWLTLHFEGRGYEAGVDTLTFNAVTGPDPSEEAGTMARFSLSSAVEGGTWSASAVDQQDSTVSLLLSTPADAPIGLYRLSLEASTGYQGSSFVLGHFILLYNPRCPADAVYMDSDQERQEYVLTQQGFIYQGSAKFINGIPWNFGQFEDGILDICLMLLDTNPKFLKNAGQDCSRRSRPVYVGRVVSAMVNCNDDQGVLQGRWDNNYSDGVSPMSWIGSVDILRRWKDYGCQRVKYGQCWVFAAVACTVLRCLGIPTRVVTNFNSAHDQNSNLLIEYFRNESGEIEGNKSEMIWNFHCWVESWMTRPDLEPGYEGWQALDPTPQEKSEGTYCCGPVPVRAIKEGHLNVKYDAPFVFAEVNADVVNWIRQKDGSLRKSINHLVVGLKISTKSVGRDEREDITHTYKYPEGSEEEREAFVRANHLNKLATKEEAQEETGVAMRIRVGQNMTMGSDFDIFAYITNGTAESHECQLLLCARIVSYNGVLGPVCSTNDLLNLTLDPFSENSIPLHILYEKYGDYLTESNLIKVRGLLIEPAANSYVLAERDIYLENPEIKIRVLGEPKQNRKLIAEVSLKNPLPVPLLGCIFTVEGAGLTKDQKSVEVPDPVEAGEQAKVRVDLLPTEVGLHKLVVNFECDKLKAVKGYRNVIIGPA
PAD4 conversion: Arg (PAD4 [3]),PAD4 conversion: 1 Cit (PAD4 [3]),PAD2 conversion: Arg (PAD2 [5]),PAD2 conversion: 1 Cit (PAD2 [5]),PAD4 conversion: 2 Cit (PAD4 [3]),PAD2 conversion: 2 Cit (PAD2 [5]),Molecule,also measured
85%,15%,15%,85%,,,DSEGTWRKGPEAD [SEQ ID NO: 8],
6%,69%,14%,14%,25%,73%,DSRFYWRGGGKSD [SEQ ID NO: 10],
93%,7%,43%,57%,,,DSSEELRGGGKSD [SEQ ID NO: 9],
2%,88%,5%,70%,10%,25%,IEIITDRQSGKKR [SEQ ID NO: 7],
2%,69%,1%,96%,29%,4%,IGSRGDRSGFGKF [SEQ ID NO: 6],

# More lines, now with the values behind:
Molecule,PAD4 conversion: Arg (PAD4 [3]),PAD4 conversion: 1 Cit (PAD4 [3]),PAD2 conversion: Arg (PAD2 [5]),PAD2 conversion: 1 Cit (PAD2 [5]),PAD4 conversion: 2 Cit (PAD4 [3]),PAD2 conversion: 2 Cit (PAD2 [5]),also measured
"COC(=O)N[C@H](C(=O)N[C@@H](CC(=O)O)C(=O)N[C@@H](CCCNC(=N)CF)C(=O)NCC(=O)N[C@@H](CO)C(=O)OC)[C@@H](C)O [CXP5-101, MeO2C-T-D-O(FA)-G-S-methylester] (Moc-TD[Orn(fluoroacetimidoyl)]GS-OMe)",,,,,,,IC50 (creatine kinase (CK)): 780 µM
"CC(=O)NCC(=O)N[C@@H](CC(=O)O)C(=O)N[C@@H](CCCNC(=N)CCl)C(=O)NCC(=O)N[C@@H](CO)C(=O)O [CXP5.2-078, Ac-G-D-O(CA)-G-S] (Ac-GD[X1]GS-OH; N-terminus and C-terminus assumed)",,,,,,,IC50 (creatine kinase (CK)): 780 µM
"CC(=O)N[C@@H](CCCCN)C(=O)N[C@@H](Cc1c[nH]c2ccccc12)C(=O)N[C@@H](Cc1c[nH]cn1)C(=O)N[C@@H](CCCNC(=N)CF)C(=O)N[C@@H](CC(=O)O)C(=O)N[C@@H](Cc1ccccc1)C(=O)N[C@@H](Cc1ccccc1)C(N)=O [Peptide 0748-09FA, Ac-K-W-H-O(FA)-D-F-F-amide] (Ac-KWH[Orn(fluoroacetimidoyl)]DFF-NH2)",,,,,,,IC50 (caspase-3): > 1000 µM; IC50 (papain): > 2000 µM; IC50 (transglutaminase (TG)): > 1000 µM
CC(=O)O[C@H]1C(=O)[C@@]2(C)[C@H]([C@H](OC(=O)c3ccccc3)[C@]3(O)C[C@H](OC(=O)[C@H](O)[C@@H](NC(=O)c4ccccc4)c4ccccc4)C(C)=C1C3(C)C)[C@]1(OC(C)=O)CO[C@@H]1C[C@@H]2O [paclitaxel],,,,,,,inhibition of citrullination of MBP by PAD2 (PAD2 [1]): can inhibit citrullination of MBP by PAD2 in vitro
"D-S-Q-F-A-F-R-G-A-S-A-S-D (DSQFAFRGASASD) [Peptide 0308-29, reference compound]",98%,2%,68%,32%,,,"Conversion (%) (PAD4 [2]; Table 4, 13-mer peptides, PAD4): 30% (=L1); Conversion by PAD4 (%) (PAD4 [2]; Table 10): <20(=L1) %; conversion of L1 analogs by PAD4 (PAD4 [2]; relative to conversion of L1 under standard conditions (L1 = 100), single substitution at positions -4 to 4): 100%; Conversion (%) (PAD2 [4]; Table 9, PAD2): 45 (=L1) %; Conversion by PAD2 (%) (PAD2 [4]; Table 10): <20(=L1) %; conversion of L1 analogs by PAD2 (PAD2 [4]; relative to conversion of L1 (L1 = 100), single substitution at positions -4 to 4): 100%"
DDYSSSRDGYGGS [SEQ ID NO: 1],97%,3%,88%,12%,,,
DGYGGSRDSYSSS [SEQ ID NO: 3],97%,3%,54%,46%,,,
DSYRSWRDGYYSD [SEQ ID NO: 4],1%,99%,16%,30%,0%,55%,
GGYSGDRSGGGYG [SEQ ID NO: 2],61%,39%,33%,67%,,,
IEIMTDRGSGKKR [SEQ ID NO: 5],37%,60%,6%,34%,3%,60%,
biotin-Ahx-D-S-K-K-H-D-O(FA)-D-F-L-Y-S-D-amide [biotinylated inhibitory peptide],,,,,,,mode of binding of the inhibitor to PAD4 (His-tagged PAD4): covalent binding of the inhibitor to PAD4
